Results reported in patent US11913033B2, “Luciferases and methods for using same” (LIGHT BIO, INC., priority 2017, dated 2024).

Legend:
fungal luciferases = test: Bioluminescence spectra of lysed transfected HEK293N cells with 3-hydroxyhispidin or analogs; type: biochemical; conditions: luciferin 660 μg/ml, pH 8.0, cell lysate
Procedure: Plasmids comprising coding sequences of fungal luciferases necessary for expression in mammalian cells were obtained as described in Example 3 and used for the transfection of HEK293N cells. 24 hours after the transfection procedure, the cells were detached from dishes using trypsin-Versen solution (0.025% trypsin), the medium was substituted with a phosphate saline buffer, pH 8.0, by centrifugation, the cells were resuspended and lysed using ultrasound; 3-hydroxyhispidin or one of analogs thereof ((E)-6-(4-diethylamino)styryl)-3,4-dihydroxy-2H-pyran-2-one, (E)-3,4-dihydroxy-6-(4-hydroxystyryl)-2H-pyran-2-one, E)-6-(2-1H-indol-3-yl)vinyl)-3,4-dihydroxy-2H-pyran-2-one, (E)-6-(2-(1,2,3,5,6,7-hexahydropyrido[3,2,1-ij]quinoline-9-yl)vinyl)-3,4-dihydroxy-2H-pyran-2-one and (E)-3,4-dihydroxy-6-(2-(6-hydroxynaphthalene-2-yl)vinyl)-2H-pyran-2-one) at a concentration of 660 μg/ml was added to the medium.
Varian Cary Eclipse spectrofluorimeter was used to detect bioluminescence spectra. All the samples emitted light with all examined luciferins.

[1] = test system: CT26 cells (Mus musculus carcinoma cells); test: Labelling of implanted tumour cells in a living mouse, IVIS imaging; type: in vivo; conditions: subcutaneous CT26 cells; luciferin mixture 0.5 mg each intraperitoneally
Procedure: Vector containing the coding sequence of luciferase from Neonothopanus nambi under the control of a cytomegaloviral promoter was obtained as described in Example 3. In addition, a humanized nucleotide sequence encoding luciferase from Photinus pyralis firefly was synthesized and cloned into the same vector.
The obtained constructs were used to transfect CT26 cells (Mus musculus carcinoma cells). The cells expressing luciferase from Neonothopanus nambi were injected subcutaneously into the left half of a mouse's back, while cells expressing luciferase of Photinus pyralis were injected in the same manner into the right half of a mouse's back. 10 minutes after injection, a mixture of fungal luciferin (0.5 mg) and Photinus pyralis firefly luciferin (0.5 mg) was injected intraperitoneally. Bioluminescence of the mouse was then visualized using IVIS Spectrum CT (PerkinElmer).

[2] = Bioluminescence of isolated recombinant luciferase fragments from E. coli with 3-hydroxyhispidin; type: biochemical; conditions: 3-hydroxyhispidin added
Procedure: Sequence SEQ ID No: 52 was operably linked to the 5′ end of the nucleic acids encoding functional fragments of luciferases (SEQ ID NOs: 19, 21, 23, 25, 27, 29, 31, 33); the obtained constructs were cloned into pET-23 vector using BamHI and HindIII restriction endonucleases. The vector was used to transform Escherichia coli cells of BL21-CodonPlus strain (the derivative of Stratagene BL21-Gold high-yield strain) The cells were plated on Petri dishes containing LB medium comprising 1.5% agar, 100 μg/ml of ampicillin and 100 μg/ml of chloramphenicol, and incubated overnight at 37° C. Escherichia coli colonies were then transferred to 4 ml of liquid LB medium supplemented with ampicillin and chloramphenicol and incubated overnight at 37° C., with rocking. 1 ml of the overnight culture was transferred to 100 ml of Overnight Express Autoinduction medium (Novagen) containing preliminary added ampicillin and chloramphenicol. The culture was grown at 37° C. for 2.5 hours until it reached an optical density of 0.6 OE at 600 nm, and then it was grown at room temperature for 16 hours. The cells were then pelleted by centrifugation at 4500 rpm for 20 minutes in Eppendorf 5810R centrifuge, resuspended in 35 ml of buffer (50 mM Tris HCl, pH 8.0, 150 mM NaCl) and sonicated. […]

HEK293NT and HeLa cells = test: Luminescence of mammalian cells transfected with humanized luciferases after adding 3-hydroxyhispidin; type: cell-based; conditions: 3-hydroxyhispidin 660 μg/ml, 24 hours after transfection
Description: Coding sequences of luciferases obtained as shown in examples 1 and 2 were optimized (humanized) for expression in mammalian cells. Humanized nucleic acids were obtained by oligonucleotide synthesis using standard techniques. The nucleotide profile of humanized nucleic acids is shown in SEQ ID NOs: 44-51, the amino acid profile of the corresponding proteins is identical to wild-type proteins shown in SEQ ID NOs: 2, 4, 6, 8, 10, 12, 14, 16. The obtained nucleic acids were cloned into pmKate2-keratin vector (Evrogen, Russia) using NheI and NotI restriction sites instead of a sequence encoding mKate2-keratin fusion protein. Plasmid DNA was purified and transfected into HEK293NT and HeLa cells using FuGENE HD Transfection Reagent (Promega, USA) according to the manufacturer's protocol. 24 hours after the transfection procedure, 3-hydroxyhispidin at a concentration of 660 μg/ml was added to the medium, and cell luminescence was detected using IVIS Spectrum CT (PerkinElmer). Intensity of light emission of all samples was by an order of magnitude and greater than the signal coming from the non-transfected control cells (FIG. 2). […]

cells of HEK293NT line = test: Cell labelling: luciferase co-transfected into HEK293NT cells, microscopy; type: cell-based, human
Procedure: Vector containing luciferase from Neonothopanus nambi under the control of a cytomegaloviral promoter obtained as described in Example 3 was co-transfected with pTurboFP635-N vector (Evrogen, Russia) encoding the red fluorescent protein, into the cells of HEK293NT line. Transfection was performed using FuGENE HD transfection reagent (Promega) according to the protocol recommended by the manufacturer. 24 hours after the transfection procedure, 3-hydroxyhispidin was added to the medium up to a final concentration of 660 μg/ml; and cell luminescence was analysed using Leica DM6000 microscope with a 20× objective. The cells were visualized in transmitted light, in the green and red channels for detecting fluorescence (FIG. 6).

[3] = Bioluminescence spectrum of luciferase expressed in Pichia pastoris, supernatant plus 3-hydroxyhispidin; type: biochemical; conditions: 3-hydroxyhispidin (25 μM) in 1% DDM
Procedure: In order to analyse the bioluminescence of expressed luciferase, Pichia pastoris colonies in which luminescence was observed were isolated and grown in 750 ml flasks filled with 250 ml of YPD medium for 72 hours at 30° C. and stirred at 200 rpm. Luciferase-expressing cells were then pelleted by centrifugation at 5000 g for 15 minutes at 4° C. The obtained pellet was resuspended in a 0.1 M phosphate buffer, pH 7.4, comprising 0.1% DDM for two hours at 4° C. The suspension was centrifuged at 21000 g for 30 min at 4° C. The bioluminescence reaction was activated by adding 750 μl of the obtained supernatant to 250 μl of the solution of 3-hydroxyhispidin (25 μM) in 1% DDM. Varian Cary Eclipse spectrofluorimeter was used to detect bioluminescence.

## O=c1oc(/C=C/c2ccc3cc(O)ccc3c2)cc(O)c1O [(E)-3,4-dihydroxy-6-(2-(6-hydroxynaphthalene-2-yl)vinyl)-2H-pyran-2-one]
Fungal luciferases
  luminescence optimum displacement: shift to the long-wavelength region
  wavelength of significantly emitted photons: more than 580 nm

## O=c1oc(/C=C/c2c[nH]c3ccccc23)cc(O)c1O [(E)-6-(2-1H-indol-3-yl)vinyl)-3,4-dihydroxy-2H-pyran-2-one]
Fungal luciferases
  luminescence optimum displacement: shift to the short-wavelength region

## luciferase from Photinus pyralis: firefly luciferase from Photinus pyralis, humanized sequence, comparison in mouse tumour labelling [reference compound]
[1]
  intensity of light emission of tumour: 21000000 cu

B1: functional fragment of luciferase from Omphalotus olearius: recombinant Omphalotus olearius luciferase with N-terminal transmembrane domain removed, expressed in E. coli (protein)
chain: FIRKDYQTFLEVGPSYAPQNLQGYIIVCVLSLFRQEQKDVAIYDRLPEKRRWLGDLPFREGPRPSITSHIIQRQRTQLADAEFATKELIGKIIPRVQARHTNTTFLSTSKFEFHAQAIFLLPSIPINDPQNIPSHDTVRRTKREIAHMHDYHDCTLHLALAAQDGKEVLEKGWGQRHPLAGPGVPGPPTEWTFLYAPRSEEEVRVVEMIVEASVVYMTNDPADKIVEATVQGTEE
modifications: Amino acid sequence of the functional fragment of luciferase from Omphalotus olearius
notes: recombinant Omphalotus olearius luciferase with N-terminal transmembrane domain removed, expressed in E. coli
[2]
  intensity of emitted light, rank among recombinant functional fragments: lowest intensity

B2: SEQ ID No:51 with the replacement of valine with isoleucine at position 146: Panellus stipticus luciferase variant with valine replaced by isoleucine at position 146 (protein, listed as Panellus stipticus)
chain: MNINLKALIGVCAVLITAAVFPFVRKDYHTFLEGGPSYAPQNLQGYIIVLVLSLFRGEETGLEIYDRLPEKRRWLEELPVREGPRPKTTSHIIQRQLNQHVDPDFGMNSLKGSVIRRLQSRHQDITQLALSKFEFHAEAIFLRPDIAINDPKHVPSHDTVRRTKREIAHMHDYHDYTCHLALAAQDGKQVIAKGWGQRHPLAGPGMPGPPTEWTFLYAPRNEAEVQVLETIIEASIGYMSNAPALGGSE
HEK293NT and HeLa cells
  oxidation of 3-hydroxyhispidin in a bioluminescent reaction: capable of the oxidation of 3-hydroxyhispidin

B3: luciferase from Neonothopanus nambi: fungal luciferase from Neonothopanus nambi oxidizing 3-hydroxyhispidin with emission of light (protein, listed as Neonothopanus nambi)
chain: MRINISLSSLFERLSKLSSRSIAITCGVVLASAIAFPIIRRDYQTFLEVGPSYAPQNFRGYIIVCVLSLFRQEQKGLAIYDRLPEKRRWLADLPFREGTRPSITSHIIQRQRTQLVDQEFATRELIDKVIPRVQARHTDKTFLSTSKFEFHAKAIFLLPSIPINDPLNIPSHDTVRRTKREIAHMHDYHDCTLHLALAAQDGKEVLKKGWGQRHPLAGPGVPGPPTEWTFLYAPRNEEEARVVEMIVEASIGYMTNDPAGKIVENAK
Cells of HEK293NT line; 3-hydroxyhispidin 660 μg/ml, 24 hours after transfection
  light signal of expressing cells: distinct light signal in the green region of the spectrum
Cells of HEK293NT line; HEK293NT cells
  toxicity of luciferase expression to the cells: No signs of toxicity
[1]
  intensity of light emission of tumour: 20000000 cu
[3]
  bioluminescence spectrum compared with Neonothopanus nambi mycelium bioluminescence: substantially identical

B4: functional fragment of luciferase from Neonothopanus nambi: recombinant Neonothopanus nambi luciferase with N-terminal transmembrane domain removed, expressed in E. coli (protein)
chain: IIRRDYQTFLEVGPSYAPQNFRGYIIVCVLSLFRQEQKGLAIYDRLPEKRRWLADLPFREGTRPSITSHIIQRQRTQLVDQEFATRELIDKVIPRVQARHTDKTFLSTSKFEFHAKAIFLLPSIPINDPLNIPSHDTVRRTKREIAHMHDYHDCTLHLALAAQDGKEVLKKGWGQRHPLAGPGVPGPPTEWTFLYAPRNEEEARVVEMIVEASIGYMTNDPAGKIVENAK
modifications: Amino acid sequence of the functional fragment of luciferase from Neonothopanus nambi
notes: recombinant Neonothopanus nambi luciferase with N-terminal transmembrane domain removed, expressed in E. coli
[2]
  intensity of emitted light, rank among recombinant functional fragments: highest intensity
